Assay [1] addresses T1, human LEPR, full length, on HEK293-STAT3Luc-hLepR1 cells (Homo sapiens, UniProt P48357 22-1165).
T1 sequence: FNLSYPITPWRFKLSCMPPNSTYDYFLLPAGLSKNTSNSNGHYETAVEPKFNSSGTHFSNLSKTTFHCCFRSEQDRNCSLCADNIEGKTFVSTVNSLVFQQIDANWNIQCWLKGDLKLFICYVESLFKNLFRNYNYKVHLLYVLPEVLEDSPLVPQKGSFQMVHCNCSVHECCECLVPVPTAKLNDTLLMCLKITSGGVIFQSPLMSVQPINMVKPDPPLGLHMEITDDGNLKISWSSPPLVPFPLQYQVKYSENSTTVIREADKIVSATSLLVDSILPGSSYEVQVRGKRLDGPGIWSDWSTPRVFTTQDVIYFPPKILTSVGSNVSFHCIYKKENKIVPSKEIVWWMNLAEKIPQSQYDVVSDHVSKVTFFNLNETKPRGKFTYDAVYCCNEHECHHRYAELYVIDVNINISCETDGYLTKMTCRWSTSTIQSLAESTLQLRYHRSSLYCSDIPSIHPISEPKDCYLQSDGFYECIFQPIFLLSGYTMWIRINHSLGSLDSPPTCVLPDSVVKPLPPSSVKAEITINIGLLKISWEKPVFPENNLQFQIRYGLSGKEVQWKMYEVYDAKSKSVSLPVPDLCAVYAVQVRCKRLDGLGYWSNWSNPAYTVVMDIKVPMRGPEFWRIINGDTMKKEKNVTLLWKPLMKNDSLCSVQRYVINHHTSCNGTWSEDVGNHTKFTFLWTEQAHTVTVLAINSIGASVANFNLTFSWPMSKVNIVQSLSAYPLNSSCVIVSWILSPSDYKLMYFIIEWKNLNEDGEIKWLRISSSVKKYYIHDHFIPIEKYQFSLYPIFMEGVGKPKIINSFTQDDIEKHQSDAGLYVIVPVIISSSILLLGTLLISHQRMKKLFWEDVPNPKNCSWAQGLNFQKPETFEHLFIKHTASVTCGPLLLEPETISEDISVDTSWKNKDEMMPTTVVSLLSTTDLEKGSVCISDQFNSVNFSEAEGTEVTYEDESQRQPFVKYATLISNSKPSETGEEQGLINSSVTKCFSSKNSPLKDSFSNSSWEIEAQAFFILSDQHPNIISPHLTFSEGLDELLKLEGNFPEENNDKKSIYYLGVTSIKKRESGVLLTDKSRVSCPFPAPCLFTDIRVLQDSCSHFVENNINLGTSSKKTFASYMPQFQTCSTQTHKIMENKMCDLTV
Nature of the assay: cell-based or functional assay.

Assay [2] deals with T2, cynomolgus monkey LEPR, full length, on HEK293-STAT3Luc-cmLepR2 cells (Macaca fascicularis).
T2 construct: whole, on cells; also called cyno-LEPR; Macaca fascicularis LEPR
Briefly: flow cytometry on live HEK293-STAT3Luc-cmLepR2 cells, AF647 anti-human IgG; average of 4 runs.

The target of assay [3] is T3, Rat LEPR-ECD-His (rat, UniProt Q62959 22-839).
T3 sequence: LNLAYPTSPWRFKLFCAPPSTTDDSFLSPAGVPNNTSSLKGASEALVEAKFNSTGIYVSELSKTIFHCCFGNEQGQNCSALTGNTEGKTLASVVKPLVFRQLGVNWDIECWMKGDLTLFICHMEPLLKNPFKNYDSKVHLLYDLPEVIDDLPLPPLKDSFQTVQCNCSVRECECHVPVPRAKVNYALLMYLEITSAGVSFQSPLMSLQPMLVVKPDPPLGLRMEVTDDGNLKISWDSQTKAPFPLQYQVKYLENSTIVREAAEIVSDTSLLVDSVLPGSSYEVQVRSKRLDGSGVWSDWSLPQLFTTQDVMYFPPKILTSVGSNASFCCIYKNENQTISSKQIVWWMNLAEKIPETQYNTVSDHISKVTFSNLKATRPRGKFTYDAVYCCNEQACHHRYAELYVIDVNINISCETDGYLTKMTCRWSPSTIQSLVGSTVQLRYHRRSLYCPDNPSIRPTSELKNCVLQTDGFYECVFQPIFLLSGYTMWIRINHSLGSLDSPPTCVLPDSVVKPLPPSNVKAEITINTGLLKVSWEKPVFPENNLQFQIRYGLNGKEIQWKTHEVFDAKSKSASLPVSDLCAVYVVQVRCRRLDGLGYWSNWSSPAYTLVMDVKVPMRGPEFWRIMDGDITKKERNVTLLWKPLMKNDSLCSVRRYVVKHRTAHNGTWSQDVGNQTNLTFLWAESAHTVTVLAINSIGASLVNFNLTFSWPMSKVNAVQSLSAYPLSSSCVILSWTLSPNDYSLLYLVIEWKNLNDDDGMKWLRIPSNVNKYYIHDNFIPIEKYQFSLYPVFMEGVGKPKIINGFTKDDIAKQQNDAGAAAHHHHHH
Briefly: SPR (Biacore T200), antibody captured on Protein A/G chip, n = 1. On the technique in general: In SPR one partner is held on a chip, and binding of the other changes the refractive index at the surface.

Assay [4] concerns the target T1, human LEPR, full length, on …. Briefly: flow cytometry on live HEK293-STAT3Luc-hLepR1 cells, AF647 anti-human IgG; average of 4 runs. In general terms: In flow cytometry, cells or beads pass a laser one at a time.
The target in assay [5] is T4, Recombinant LEPR extracellular domain fused to hIgG1-Fc (human LEPR ECD-TEV-Fc) (human).
T4 construct: The entry holds ECD, TEV site, human IgG1 Fc and a His tag in one chain; also called LEPR-Fc; hLEPR-TEV-hIgG1Fc
Nature of the assay: ELISA, plate coated with human LEPR ECD (SEQ ID NO:30) at 2 ug/mL, antibody titrated 1:3 from 50 ug/mL, goat anti-human kappa AP detection, OD560.

The target in assay [6] is T1, human LEPR, full length, on …. Briefly: cell-based or functional assay. This is another data set of the same source.

Numbering of substitutions follows the chain as printed.

B1: Antibody A (antibody, human IgG1, kappa, L234A L235A)
heavy: EVQLLESGGGLVQPGGSLRLSCAASGFTFSSFAMSWVRQAPGKGLEWVSAISGSGGSTYSADSVRGRFTISRDNSKNTLYLQMNSLRAEDTAVYYCAKDQGDWDFLFDYWGQGTLVTVSSASTKGPSVFPLAPSSKSTSGGTAALGCLVKDYFPEPVTVSWNSGALTSGVHTFPAVLQSSGLYSLSSVVTVPSSSLGTQTYICNVNHKPSNTKVDKRVEPKSCDKTHTCPPCPAPEAAGGPSVFLFPPKPKDTLYITREPEVTCVVVSVSHEDPEVKFNWYVDGVEVHNAKTKPREEQYNSTYRVVSVLTVLHQDWLNGKEYKCKVSNKALPAPIEKTISKAKGQPREPQVYTLPPSREEMTKNQVSLTCLVKGFYPSDIAVEWESNGQPENNYKTTPPVLDSDGSFFLYSKLTVDKSRWQQGNVFSCSVMHEALHNHYTQKSLSLSPGK
light: DIQMTQSPSFLSASVGDRVTITCRASQGISSSLAWYQQKPGKAPKLLIYTASTLQSGVPSRFSGSGSGTEFTLTISSLQPEDFATYYCQQLIYYPFTFGQGTKVEIKRTVAAPSVFIFPPSDEQLKSGTASVVCLLNNFYPREAKVQWKVDNALQSGNSQESVTEQDSKDSTYSLSSTLTLSKADYEKHKVYACEVTHQGLSSPVTKSFNRGEC
notes: IgG1 mAb
The term EC50 (read off the curve) denotes the midpoint of the concentration-response curve. B1: in assay [1], the “EC50 (nM), pSTAT3 AlphaLISA, after pre-exposure to 30 nM Antibody A and wash-out” value was 0.36 nM; the “EC50 (nM), pSTAT3 AlphaLISA, vehicle-exposed cells” value (shortened to “EC50 (nM) … vehicle-exposed cells”) came out at 0.331 nM; the “Top (%), pSTAT3 AlphaLISA against 30 nM leptin, vehicle-exposed cells” value (“Top (%), pSTAT3 AlphaLISA” for short) turned out to be 68.9%. Also, in assay [2], the “Bottom (gMFI)” value worked out at 254 gMFI and the “Top (gMFI)” value was 12100 gMFI. Further, the binding result in assay [3] is recorded as “no binding (tested: LEPR-ECD tested up to 1000 nM)”. Besides, in assay [4], the “Bottom (gMFI)” value came to 131 gMFI and the “Top (gMFI)” value was 2460 gMFI. Further, the 50% effective concentration (EC50 (read off the curve)) in assay [5] was roughly 0.06 µg/mL. Besides, the “Maximum RLU, pERK1/2 AlphaLISA (baseline 29762.5)” value (from here on “Maximum RLU, pERK1/2 AlphaLISA”) in assay [6] stood at 86000 RLU.

B2: Antibody C (antibody, human IgG1, kappa, L234A L235A, V domains shown)
VH: EVQLLESGGGLVQPGGSLRLSCAASGFTFSSFAMSWVRQAPGKGLEWVSAISGSGGSTYSADSVRGRFTISRDNSKNTLYLQMNSLRAEDTAVYYCAKDQGDWDFLFDYWGQGTLVTVSS
VL: DIQMTQSPSFLSASVGDRVTITCRASQGISSSLAWYQQKPGKAPKLLIYTASTLQSGVPSRFSGSGSGTEFTLTISSLQPEDFATYYCQQLNYYPFSFGQGTKVEIKR
Regarding B2, in assay [1], the “EC50 (nM), pSTAT3 AlphaLISA, after pre-exposure to 30 nM Antibody C and wash-out” value is 1.14 nM; the “EC50 (nM) … vehicle-exposed cells” value turned out to be 1.04 nM; the “Top (%), pSTAT3 AlphaLISA” value was 71.7%. Also, in assay [2], the “Bottom (gMFI)” value was determined as 214 gMFI and the “Top (gMFI)” value came out at 10800 gMFI. For the same molecule, the binding result in assay [3] was “no binding (tested: LEPR-ECD tested up to 1000 nM)”. Besides, in assay [4], the “Bottom (gMFI)” value came out at 144 gMFI and the “Top (gMFI)” value is 1850 gMFI. Also, in assay [5], the “EC50 (read off the curve)” value was roughly 0.07 µg/mL. Also, the “Maximum RLU, pERK1/2 AlphaLISA” value in assay [6] was 87000 RLU.

B3: Antibody B (antibody, human IgG1, kappa, L234A L235A, V domains shown)
VH: B2 VH
VL: B2 VL with A25V, S97T
Turning to B3, in assay [1], the “EC50 (nM), pSTAT3 AlphaLISA, after pre-exposure to 30 nM Antibody B and wash-out” value was determined as 1.06 nM; the “EC50 (nM) … vehicle-exposed cells” value came out at 0.986 nM; the “Top (%), pSTAT3 AlphaLISA” value amounted to 70.5%. Moreover, in assay [2], the “Bottom (gMFI)” value came to 243 gMFI and the “Top (gMFI)” value amounted to 12100 gMFI. Moreover, in assay [3], the binding result was “no binding (tested: LEPR-ECD tested up to 1000 nM)”. Also, in assay [4], the “Bottom (gMFI)” value is 123 gMFI and the “Top (gMFI)” value is 2940 gMFI. Further, the 50% effective concentration (EC50 (read off the curve)) in assay [5] is roughly 0.08 µg/mL. Also, the “Maximum RLU, pERK1/2 AlphaLISA” value in assay [6] is 83400 RLU.
